Consider three proteins from PMC4658334, “Reassessment of MxiH subunit orientation and fold within native Shigella T3SS needles using surface labelling and solid-state NMR” (Journal of Structural Biology, 2015).

Series [1] deals with the molecule itself. Briefly: negative-stain electron microscopy of purified needles; purified needle preparations, about 0.1 μg/ml, on carbon-coated grids, stained with 1% phosphotungstic acid pH 7; self-association of the subunit into the needle polymer.
Series [2] concerns the molecule itself. Description: solid-state NMR; 5-7 mg of uniformly 13C,15N labelled natively grown needles packed in a 1.9 mm rotor; 20.0 T, 18 kHz MAS; self-association of the subunit into the needle polymer.

Positions count from the first letter of the chain named.

B1: MxiH L32C (natural protein)
chain: MSVTVPNDDWTLSSLSETFDDGTQTLQGELTCALDKLAKNPSNPQLLAEYQSKLSEYTLYRNAQSNTVKVIKDVDAAIIQNFR
notes: MxiH, needle subunit of the T3SS, Shigella flexneri, with leucine 32 changed to cysteine; cloned into pACT3 via NdeI and HindIII; Printed mass of the unlabelled subunit is 9123.5 Da; source: S. flexneri, expressed from pACT3 with 200 μM IPTG; needles purified
Regarding B1, in series [1], the binding result is “binds”.

B2: MxiH, needle subunit of the Shigella flexneri type III secretion system (wild type, serotype 5) (natural protein)
chain: B1 chain with C32L
modifications: uniformly 13C,15N labelled
notes: MxiH, needle subunit of the T3SS, Shigella flexneri serotype 5; expressed from pACT3mxiH; arranged as a helical polymer (needle); Helical polymer; also called WT MxiH; native MxiH needles; source: S. flexneri ΔmxiH (pACT3mxiH), 200 μM IPTG, M9-type minimal medium; in vivo assembled needles shaved from the bacterial surface and purified
With B2, the binding result in series [2] was “binds”.

B3: MxiH V68C (natural protein)
chain: B1 chain with C32L, V68C
notes: MxiH, needle subunit of the T3SS, Shigella flexneri, with valine 68 changed to cysteine; gene synthesized and cloned into pACT3 via NdeI and HindIII; Printed mass of the unlabelled subunit is 9137.5 Da; source: S. flexneri, expressed from pACT3 with 200 μM IPTG; needles purified
In the case of B3, the binding result in series [1] is “binds”.
